These results are taken from PMC8719770 (PLoS ONE, 2021).

Test [1] concerns the target T1, recombinant cynomolgus monkey PD-1 His tag (Macaca fascicularis (cynomolgus monkey), UniProt B0LAJ3).
T1 construct: cynomolgus monkey PD-1 extracellular domain; also called cynomolgus PD-1; source: bought: R&D Systems
Put plainly: BLI; Octet Red96; antibodies (5 μg/ml) captured on protein A biosensor tips; serial dilution of PD-1 as analyte, 120 sec association, 300 sec dissociation; HBS-EP+ pH 7.4, 25°C, 1000 rpm; global 1:1 fit; apparent constants. The following applies: both partners purified. On the technique in general: BLI is a label-free optical method that tracks binding on a fibre tip over time.

For test [2], the target named is T2, rat PD-1 ECD-Fc (Rattus norvegicus, UniProt D3ZIN8).
T2 construct: rat PD-1 extracellular domain; also called murine PD-1; source: bought: Sino Biological Inc
Briefly: ELISA; PD-1-Fc proteins (9 ng per well) immobilized on 96-well plate overnight at 4°C; serial diluted HLX10, one hour at room temperature; detected with peroxidase-labeled goat anti-human IgG F(ab)'2. The following applies: both partners purified.

In test [3] the target is T3, mouse PD-1-ECD-Fc (Mus musculus, UniProt Q02242).
T3 construct: mouse PD-1 extracellular domain; also called murine PD-1; source: bought: Sino Biological Inc
Described as above. The following applies: both partners purified.

Test [4] concerns the target T4, human PD-1 (recombinant; construct not stated for this experiment) (Homo sapiens, UniProt Q15116).
T4 construct: human PD-1; the ELISA and the SPR may have used different ones; SPR methods may stand in S1 File
Put plainly: SPR; format not told in the text shown (S1 Fig b, c). The following applies: both partners purified. In general terms: In SPR one partner is held on a chip, and binding of the other changes the refractive index at the surface.

Test [5] addresses T5, human PD-1 expressed on PD-1 transfected CHO-S cells (human, UniProt Q15116).
T5 construct: human PD-1 on the surface of transfected CHO-S cells; also called cell-surface expressed PD-1; membrane PD-1; source: CHO-S, transfected, on cells
Briefly: flow cytometry on cells; competition: PD-1-transfected CHO-S cells with serial diluted antibody and 5 μg/mL biotin-labeled PD-L1, 4°C, 30 minutes; streptavidin-PE. The following applies: one partner purified. On the technique in general: In flow cytometry, cells or beads pass a laser one at a time.

Test [6] has as its target T5, human PD-1 expressed on PD-1 …. Briefly: flow cytometry on cells; competition: PD-1-transfected CHO-S cells with serial diluted antibody and 0.5 μg/mL biotin-labeled PD-L2, 4°C, 30 minutes; streptavidin-PE. The following applies: one partner purified.

B1: HLX10, fully humanized IgG4 monoclonal antibody against PD-1 receptor (antibody, V domains shown)
VH: QVQLVESGGGLVKPGGSLRLSCAASGFTFSNYGMSWIRQAPGKGLEWVSTISGGGSNIYYADSVKGRFTISRDNAKNSLYLQMNSLRAEDTAVYYCVSYYYGIDFWGQGTSVTVSS
VL: DIQMTQSPSSLSASVGDRVTITCKASQDVTTAVAWYQQKPGKAPKLLIYWASTRHTGVPSRFSGSGSGTDFTLTISSLQPEDFATYYCQQHYTIPWTFGGGTKLEIK
notes: humanized VH (CDRs of chimeric c1G4 grafted on human germline IGHV3-11*04) on a human IgG4 constant region; humanized VL (CDRs of chimeric c1G4 grafted on human germline IGKV1-39*01); IgG4, hinge-stabilized; the PDB entry holds the Fab only; also called h1G4; hIG4
With B1, the figures for the Kd in test [1] and in test [4] were 4.78 ± 0.16 nM and 0.32 nM, respectively. Moreover, the koff in test [1] is 0.000745 s⁻¹. Besides, the kon in test [1] amounted to 153000 M⁻¹ s⁻¹. The binding result in test [2] and in test [3] was “no binding” throughout. The half-maximal inhibitory concentration (IC50) in test [5] was 4.36 nM; in test [6], 6.46 nM.

By koff is commonly meant the rate constant with which the complex falls apart. By kon is commonly meant the rate constant with which the complex forms. The IC50 is the concentration that inhibits the measured activity by half.
